Assay [1] addresses T1, murine DR5 ECD-AcTev-hu Fc-Avi (murine, UniProt Q9QZM4 53-153).
T1 construct: range 53-153; also called mouse DR5
Briefly: binding ELISA. For orientation: In an ELISA, binding on a coated surface is turned into a signal by an enzyme label.

Assay [2] deals with T2, Recombinant human DR4-Fc (human, UniProt O00220 109-239).
T2 construct: bought; also called huDR4Fc; human DR4 (TNFRSF10A); Fc part of the bought chimera not given
Briefly: binding ELISA.

Assay [3] has as its target T3, Recombinant human DcR1-Fc (human, UniProt O14798 26-221).
T3 construct: bought; also called huDcR1Fc; human DcR1 (TNFRSF10C); Fc part of the bought chimera not given
T3 sequence (looked up): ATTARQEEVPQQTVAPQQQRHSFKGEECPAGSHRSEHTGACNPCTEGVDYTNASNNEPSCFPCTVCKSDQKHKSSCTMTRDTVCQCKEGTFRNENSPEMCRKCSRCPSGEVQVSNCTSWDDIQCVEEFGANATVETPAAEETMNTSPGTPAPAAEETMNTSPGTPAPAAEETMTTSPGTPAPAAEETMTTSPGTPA
Kind of assay: binding ELISA.

Assay [4] addresses T4, Recombinant human DcR2-Fc (human, UniProt Q9UBN6 56-211).
T4 construct: bought for the phage antibodies; also called huDcR2Fc; human DcR2 (TNFRSF10D); not shown: Fc part of the chimera
T4 sequence (looked up): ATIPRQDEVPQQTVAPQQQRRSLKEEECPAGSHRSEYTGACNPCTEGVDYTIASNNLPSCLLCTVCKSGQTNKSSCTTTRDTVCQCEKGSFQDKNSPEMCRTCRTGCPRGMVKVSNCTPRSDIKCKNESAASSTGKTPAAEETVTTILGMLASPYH
Briefly: binding ELISA.

The target of assay [5] is T5, Recombinant human OPG-Fc (human, UniProt O00300 22-194).
T5 construct: bought; also called rhuOPGFc; human Osteoprotegerin; Fc part of the bought chimera not given
T5 sequence (looked up): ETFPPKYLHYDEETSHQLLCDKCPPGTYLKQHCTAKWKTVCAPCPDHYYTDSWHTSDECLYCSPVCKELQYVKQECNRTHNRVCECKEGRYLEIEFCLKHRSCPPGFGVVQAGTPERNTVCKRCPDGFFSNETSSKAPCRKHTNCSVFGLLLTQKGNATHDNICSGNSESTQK
Briefly: binding ELISA.

The target of assay [6] is T6, human DR5 (monomeric Fc fusion) (human, UniProt O14763 56-207, biotinylated at the Avi tag in the ELISA (the tag is not in the letters)).
T6 construct: biotinylated in the ELISA; also called ECD-AcTev-hu Fc knob-Avi; not shown: AcTev site, hu Fc knob and Avi part of the fusion chain, and the separate Fc-hole chain
Briefly: biochemical ELISA, biotinylated antigen on streptavidin plate.

Assay [7] concerns the target T7, Cynom. DR5 (ECD)-AcTev-Fc-Avi (cynomolgus).
T7 construct: also called cynomolgus DR5; cy DR5
The description is as above.
Description: Antigen binding immunoassays were performed at room temperature on 384 well streptavidin coated microtiter plates (MicroCoat Biotechnologie GmbH) with PBS buffer supplemented with 0.05% Tween®-20 and 0.5% BSA (Roche Diagnostics GmbH). […] After 90 min incubation the plate was washed 6 times with PBST (phosphate buffered saline with 0.2% Tween®-20) and developed with BM Blue® HRP substrate solution (BM Blue®: 3,3′-5,5′-Tetramethylbenzidine, Roche Diagnostics GmbH) for 30 minutes at RT. Absorbance was measured at 370 nm. The blank value was defined without addition of supernatant.

The target of another assay is T8, human DR5 ECD-Avi-his (human, UniProt O14763 56-207).
T8 construct: also called recombinant human DR5 (monomeric His-Avi fusion protein); monomeric human DR5
Kind of assay: SPR, rabbit IgG captured by anti rabbit, monomeric DR5 injected. In general terms: Surface plasmon resonance follows binding to a sensor surface in real time, without labels.

The target in assay [8] is T2, Recombinant human DR4-Fc. Briefly: SPR, receptor-Fc on CM5 chip.
The target in assay [9] is T3, Recombinant human DcR1-Fc. Briefly: SPR, receptor-Fc on CM5 chip.
Assay [10] concerns the target T4, Recombinant human DcR2-Fc. Kind of assay: SPR, receptor-Fc on CM5 chip.
The target of assay [11] is T5, Recombinant human OPG-Fc. Briefly: SPR, receptor-Fc on CM5 chip.
The target of assay [12] is T1, murine DR5 ECD-AcTev-hu Fc-Avi. Briefly: SPR, biotinylated DR5 on SA chip.

Description for human DR5 ECD-Avi-his: The sample and system buffer was PBS-T (10 mM phosphate buffered saline including 0.05% Tween20) pH 7.4. The flow cell was set to 25° C.—and the sample block set to 12° C.—and primed with running buffer twice.
The dissociation phase was monitored for up to 300 sec and triggered by switching from the sample solution to running buffer. The surface was regenerated by 60 sec washing with a 100 mM H3PO4 (phosphoric acid) solution at a flow rate of 30 μl/min. Bulk refractive index differences were corrected by subtracting the response obtained from a blank surface. Buffer injections are also subtracted (=double referencing). For calculation of KD and other kinetic parameters the Langmuir 1:1 model was used.

B1: DR5TAA-0010 (antibody, V domains shown)
VH: QSLEESGGRLVKPDETLTLTCTVSGFSLSSNAISWVRQAPGMGLEWIGIIGSSGYTYYASWAKGRFTVSKTSTTVDLEIASPTTEDTATYFCARGYSGASDYSFNLWGPGTLVTVSS
VL: AYDMTQTPDSVEVAVGGTVTIKCQASQTIGDALAWYQQKPGQRPNLLIYRTSTLASGVPSRFSGSGSGTHFTLTISGVECADAATYYCQQGATYNNVLNTFGGGTEVVVKG
notes: rabbit IgG; also called 481; clone 481
Take B1: the binding result (in assay [1]; in the assay with Recombinant human DR4-Fc [2]; in assay [3]; in [4]; with Recombinant human OPG-Fc [5]) was “no binding” throughout. Also, the values for the concentration for a half-maximal effect (EC50) in [6] and in assay [7] were 2.8 ng/mL and 8.7 ng/mL, respectively. Further, the Kd with human DR5 ECD-Avi-his was 15.9 nM.

B2: DR5TAA-0016 (antibody, V domains shown)
VH: QSLEESGGRLVKPDETLTLTCTVSGFSLNNYAMSWVRQAPGKGLEWIGMINKYGTKYYATWTKGRATISKTSTTLDLEITSPTTEDTATYFCARVRYAGDDYAEWLDVWGQGILVTVSS
VL: DIVMTQTASPVSAAVGGTVTINCQASQSISSSYVSWYQQKPGQPPKLLIYKASTLASGVPSRFSGSGSGTQLSLTIRGVQCDDAATYYCLYGYSDVSSSEYVFGGGTEVVVRG
With B2, the binding result (in assay [1]; with Recombinant human DR4-Fc [2]; in assay [3]; in [4]; in the assay with Recombinant human OPG-Fc [5]) was “no binding” in each case. The values for the EC50 in [6] and in [7] were 4 ng/mL and 2.7 ng/mL, respectively. This molecule also registered a Kd in the assay with human DR5 ECD-Avi-his of 1.45 nM.

B3: DR5TAA-0006 (antibody, V domains shown)
VH: QSLEESGGRLVTPGTPLTLTCTASGFSLSSNHMSWVRQAPGKGLEWIGYIYAGSGSAYYASWAKGRFTISRTSTTVDLKMTSLTTEDTATYFCAGDAGSSYWEFNLWGPGTLVTVSS
VL: LVMTQTPSSTSEPVGGTVTIKCQASQSIGSSLSWYQQKPGQPPKLLIYHASTLASGVPSRFSGSRSGIQTTLTISGVQCDDAATYYCLGVADARRDDGFAFGGGTEVVVKG
notes: rabbit IgG; also called 058; clone 058
Consider B3, for which the binding result (in assay [1]; with Recombinant human DR4-Fc [2]; in [3]; in assay [4]; with Recombinant human OPG-Fc [5]) was “no binding” throughout. Besides, the EC50 in assay [6] was 2 ng/mL; in assay [7], 1.6 ng/mL. Moreover, the Kd with human DR5 ECD-Avi-his came out at 5.92 nM.

B4: DR5TAA-0013 (antibody, V domains shown)
VH: QSLEESGGRLVTPGTPLTLTCTASGFTISSYHMSWVRQAPGKGLEWIGYIYAGSASTWYASWVKGRFTISKTSTTVDLKMTSLTTEDTATYFCARDAGSSYWEFNLWGPGTLVTVSS
VL: LVMTQTPSSTSEPVGGTVTIKCQASQSIGSSLSWYQQTPGQPPKLLIYTASSLASSVPKRFSGSRSGTQFTLTISGVQCADAATYYCLGIDDVRRDDGFAFGGGTEVVVKG
notes: rabbit IgG; also called 298; clone 298
Regarding B4, the binding result (in [1]; with Recombinant human DR4-Fc [2]; in [3]; in assay [4]; in the assay with Recombinant human OPG-Fc [5]) was “no binding” throughout. Besides, the EC50 in assay [6] and in assay [7] was 2.1 ng/mL each time. This molecule also gave a Kd with human DR5 ECD-Avi-his of 9.12 nM.

B5: DR5TAA-0011 (antibody, V domains shown)
VH: QSVEESGGRLVTPGTPLTLTCTVSGFSISRYAMIWVRQAPGEGLEYIGFITSDSSAYYASWAKGRFTISKTSTTVDLKMTSPTTEDTATYFCARYTYSDGTDLWGPGTLVTVSS
VL: DIVMTQTPASVSEPVGGTVTIKCQASQSISTYLSWYQQKPGQPPKRLIYKASTLASGVPSRFKGSGSGTDFTLTIRDLECADAATYYCQPNSGIATYGAAFGGGTEVVVKG
notes: also called 174; clone 174
For the molecule B5, the binding result (in assay [1]; with Recombinant human DR4-Fc [2]; in assay [3]; in assay [4]; with Recombinant human OPG-Fc [5]) was “no binding” throughout. Moreover, the EC50 in [6] was 2 ng/mL; in [7] it was 4.3 ng/mL. Binding in the assay with human DR5 ECD-Avi-his was characterised by a dissociation constant (Kd) of 4.24 nM.

B6: DR5TAA-0019 (antibody, V domains shown)
VH: QSVEESGGRLVTPGTPLTLTCTVSGFSLSNYAMSWVRQAPGKGLEWIGIISSSGTTYYASWAKGRFTISKTSTTVDLKVTSPTTEDTATYFCARETYYGYSYAAGLWGPGTLVTVSS
VL: ALVMTQTPSSVSAAVGGTVTINCQASQNIYSNLAWFQQKPGQPPKLLIYETSKLASGVPSRFSGSGSGTEFTLTISDLECDDAATYYCQSSWHSISTDCAFGGGTEVVVKG
notes: rabbit IgG
Consider B6, for which the binding result (in [1]; with Recombinant human DR4-Fc [2]; in assay [3]; in assay [4]; in the assay with Recombinant human OPG-Fc [5]) was “no binding” in each case. Further, the EC50 worked out at 3.5 ng/mL in [6] and 2.2 ng/mL in assay [7]. In the assay with human DR5 ECD-Avi-his, this molecule had a Kd of 0.675 nM.

B7: DR5TAA-0005 (antibody, V domains shown)
VH: QSLEESGGRLVTPGTPLTLTCTASGFSLSSAYMSWVRQAPGKGLEWIGYIYSGSGSTWYASWVKGRFTISKTSTTVDLKITSPTTEDTATYFCARGYSTMGDLWGPGTLVTVSS
VL: QVLTQTPSPVSAAVGGTVTINCQASQSVYNNRLAWYQQKPGQPPKLLIYLASTLASGVPSRFKGSGSGTQFTLTISDLQCDDAATYYCAGGYSGNINAFGGGTEVVVKG
notes: rabbit IgG; also called 039; clone 039
With B7, the binding result (in [1]; with Recombinant human DR4-Fc [2]; in [3]; in assay [4]; with Recombinant human OPG-Fc [5]) was “no binding” in each case. Also, the EC50 was determined as 2.5 ng/mL in assay [6] and 3.7 ng/mL in assay [7]. Moreover, the affinity in the assay with human DR5 ECD-Avi-his, expressed as Kd, was 13.3 nM.

B8: 5E11 (antibody, V domains shown)
VH: not shown
VL: EIVLTQSPGTLSLSPGERATLSCRASQSVSSSYLAWYQQKPGQAPRLLIYGASSRATGIPDRFSGSGSGTDFTLTISRLEPEDFAVYYCQQGTTHPITFGQGTKVEIK
notes: Phage display Fab converted into hu IgG1, kappa light chain; also called clone 5E11
Consider B8, for which the binding result was “no binding (tested: 500, 100 and 25 nM)” in the assay with Recombinant human DR4-Fc [8]; “no binding (tested: 500, 100 and 25 nM)” in assay [9]; “no binding (tested: 500, 100 and 25 nM)” in assay [10]; “no binding (tested: 500, 100 and 25 nM)” in the assay with Recombinant human OPG-Fc [11]; “no binding (tested: 500, 100 and 25 nM)” in assay [12].

B9: 20F2 (antibody, IgG1, V domains shown)
VH: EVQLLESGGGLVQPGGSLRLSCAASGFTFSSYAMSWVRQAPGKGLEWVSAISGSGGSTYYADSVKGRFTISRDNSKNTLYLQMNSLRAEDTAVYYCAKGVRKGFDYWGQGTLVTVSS
VL: EIVLTQSPGTLSLSPGERATLSCRASQSVSSSYLAWYQQKPGQAPRLLIYGASSRATGIPDRFSGSGSGTDFTLTISRLEPEDFAVYYCQQGESPPPTFGQGTKVEIK
notes: hu IgG1; also called DR5 (20F2)
B9: the binding result was “no binding (tested: 500, 100 and 25 nM)” with Recombinant human DR4-Fc [8]; “no binding (tested: 500, 100 and 25 nM)” in assay [9]; “no binding (tested: 500, 100 and 25 nM)” in assay [10]; “no binding (tested: 500, 100 and 25 nM)” with Recombinant human OPG-Fc [11]; “no binding (tested: 500, 100 and 25 nM)” in assay [12].

B10: 18F11 (antibody, IgG1, V domains shown)
VH: not shown
VL: EIVLTQSPGTLSLSPGERATLSCRASQSVSSSYLAWYQQKPGQAPRLLIYGASSRATGIPDRFSGSGSGTDFTLTISRLEPEDFAVYYCQQGQLPPITFGQGTKVEIK
notes: hu IgG1
In the case of B10, the binding result was “no binding (tested: 500, 100 and 25 nM)” with Recombinant human DR4-Fc [8]; “no binding (tested: 500, 100 and 25 nM)” in assay [9]; “no binding (tested: 500, 100 and 25 nM)” in assay [10]; “no binding (tested: 500, 100 and 25 nM)” with Recombinant human OPG-Fc [11]; “no binding (tested: 500, 100 and 25 nM)” in assay [12].

For orientation: EC50 means the concentration needed to bring the measured effect to its halfway point. The term Kd denotes a measure of binding affinity in units of concentration. Low values mean tighter binding, high ones weaker binding.

The record behind these values is US20190062453A1 (Hoffmann-La Roche, published 2019).
